Experimental data reported in publication PMC7904446 (Cell Host & Microbe, 2021).

B1: ZDY28 human monoclonal antibody, IgG1 (antibody, V domains shown)
VH: EVQLVQSGGGVVQPGRSLRLSCAASGFTFSSYGMHWVRQAPGKGLEWVAVISYDGSNKYYADSVKGRFTISRDNSKNTLYLQMNSLRAEDTAVYYCASRSTVVPAAIFAFDIWGQGTMVTVSS
VL: not shown
B2: ZDY49 human monoclonal antibody, IgG1 (antibody, V domains shown)
VH: EVQLVESGGGVVQPGRSLRLSCAASGFTFSSYGMHWVRQAPGKGLEWVAVISYDGSNKYYADSVKGRFTISRDNSKNTLYLQMNSLRAEDTAVYYCASRSTVVPAAIFAFDIWGQGTMVTVSS
VL: not shown
B3: ZDY95 human monoclonal antibody, IgG1 (antibody, V domains shown)
VH: EVQLVQSGGGVVQPGRSLRLSCAASGFTFSSYGMHWVRQAPGKGLEWVAVISYDGSNKYYADSVKGRFTISRDNSKNTLYLQMNSLRAEDTAVYYCASRSTVVPAAIFAFDIWGQGTMVTVSS
VL: not shown
B4: ZDY20 human monoclonal antibody, IgG1 (antibody, V domains shown)
VH: EVQLVETGGGLIQPGGSLRLSCAASGITVSSNYMSWVRQAPGKGLEWVSVIYSGGSTYYADSVKGRFTISRDNSKNTLYLQMNSLRAEDTAVYYCAREGLGDGYNAIAGLGFDLWGRGTLVTVSS
VL: DIVMTQSPSSLSASVGDSVTITCQASQDINNYLNWYQQKPGRAPELLINDASNLEAGVPSRFSGSGSGTDFTLTISSLQTEDFATYYCQQYGSLPYTFGQGTKLDIR

What was measured:
[1] = biological target: T1, SARS-CoV-2 spike trimer protein (SARS-CoV-2, Wuhan-Hu-1 reference, UniProt P0DTC2); assay: SPR
[2] = biological target: T1, SARS-CoV-2 spike trimer protein; assay: cell-based or functional assay

Row | Binder | Kd [1] [nM] | pseudovirus neutralisation in 293T-ACE2 cells, IC90; blocks S binding to ACE2 [2] [µg/mL] | neutralisation of live SARS-CoV-2, IC50; blocks S binding to ACE2 [2] [µg/mL]
1 | B1 | 10.2 | 7.47 | 
2 | B2 | 24.4 | 17.1 | 
3 | B3 | 15 | 13.3 | 
4 | B4 | 8.8 | 1.24 | 0.35
